Earlier results, collected in patent publication US20040047891A1, “Systems devices and methods for intrabody targeted delivery and reloading of therapeutic agents” (priority 2003, published 2004).
Read-outs that look alike come from different tables or passages of the source.

How the values were obtained:
[1] = molecular target: T1, ET-A receptor (Homo sapiens, UniProt P25101)
T1 sequence (P25101 21-427): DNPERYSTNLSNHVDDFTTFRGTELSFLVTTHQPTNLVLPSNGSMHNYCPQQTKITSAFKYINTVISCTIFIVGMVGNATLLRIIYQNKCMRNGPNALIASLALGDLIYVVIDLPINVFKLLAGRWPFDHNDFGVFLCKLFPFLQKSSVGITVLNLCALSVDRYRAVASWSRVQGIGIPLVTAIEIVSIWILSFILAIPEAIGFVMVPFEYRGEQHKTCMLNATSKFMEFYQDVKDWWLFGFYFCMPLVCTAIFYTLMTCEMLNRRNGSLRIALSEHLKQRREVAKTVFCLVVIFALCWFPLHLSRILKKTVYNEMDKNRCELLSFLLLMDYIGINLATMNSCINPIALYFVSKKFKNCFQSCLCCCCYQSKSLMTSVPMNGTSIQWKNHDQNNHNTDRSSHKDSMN

Row | Time to dissociate from the ET-A receptor [1] [h] | Compound | Koff (pH 1.7) [sec^−1 · 10^7] | Koff (pH 3) [sec^−1 · 10^7] | Koff (pH 5) [sec^−1 · 10^7] | Koff (pH 7) [sec^−1 · 10^7] | Koff (pH 9.2) [sec^−1 · 10^7] | Koff (pH 10.5) [sec^−1 · 10^7] | Koff (pH 2) [sec^−1 · 10^7]
1 | ≤ 2 | CCCCN(CCCC)C(=O)CN1C[C@H](c2ccc3c(c2)OCO3)[C@@H](C(=O)O)[C@@H]1c1ccc(OC)cc1 [ABT-627] | – | – | – | – | – | – | –
2 | – | Streptavidin: avidin derivative, source fermentation, no carbohydrates | 35 | 19 | 8.7 | 28 | 64 | 100 | –
3 | – | Avidin: biotin-binding protein, source chicken egg white; member of the biotin-avidin binding pair | – | 9 | 0.9 | 0.4 | – | – | 200
